We go through 41 sequences from the nanobody polyreactivity screen of Harvey et al. (2022).

A short description of the data set: yeast display, Sf9 membrane polyspecificity reagent, FACS + sequencing; frameworks hold sequencing errors. The method in brief: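 Galactose-induced (36–48 hours) yeast carrying a synthetic nanobody display library were exposed to 10% biotinylated, detergent-solubilized Sf9 membrane reagent at 4 °C for 1 hour. FACS followed streptavidin microbead enrichment, using low and high (top ~1%) gates for expression (anti-HA) and reagent binding (streptavidin). Colony PCR, MiSeq 2 × 250 sequencing and CDR-length filtering followed. Labels for polyreactivity reflect the gate of origin.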
With “QVQLVESGGGLVQAGGSLRLSCAASGLTFAINTMGWYRPAPGTERELVAAITGSGGSTYYADSVKGRFTISRDNAKNTVYLQMNSLKPEDTAVYDCAAELLYVQGYAMDYWGQGTQVTVSS”, the “polyreactivity (PSR sort gate)” value is recorded as “low polyreactivity”.
The entry for “QVQLVESGGGLVQAGGSLRLSCAASGSTFLVYAMGWYRQAPGKERELVAVITRGVRTFYADSVKGRFTFSRDNAKNTVYLQMNSLKPEDTAVYYCAKERYNANYDTSLYDYWGQGTQVTVSS” is “low polyreactivity”; for “QVQLVESGGGLVQAGGSLRLSCAASGSIFRDYAMGWYRPAPGKERELVAAISSGVSTNYADSVKGRFSISRDNAKNSVYLKMNSLIPEDTAVYYCNTDKYSESFRSYEYWGQGTQVTVSS” it is “low polyreactivity”; for “QVQLVESGGGLVQAGGSLRLSCAASGRTFYRNAMGWYRQAPGKERELVAAITWSGVSTYYADSVKGRFTISRDNAKNTVYVQMNSQKPEDTAVYYCARGRVLRNGHYFQLRNYDYWGQGTQVTVSS” it is “high polyreactivity”.
Next, “QVQLVESGGGLVQAGGSLRLSCAASGRTSSINAMGWYRQAPGKERELVAVITGGGRTSYADSVKGRFTISRDNAKNTVDLQMNSLIPEDTAVYYCNATRSYYGYYYWGQGTQVTVSS”: “high polyreactivity”; “LVQLVESGGGLVQAGGSLRLSCAASGAIFYQDAQGCYRQAPGKERELVAAISKNGRSTYYADSVKGRFTISRDNAKNTVYLQMNSLKPEATAVYYCAARVLKGYYWGQGTQVTVSS”: “high polyreactivity”; “QVQLVESAGGLVQAGASLRLSCDASGRIFPSNAMGWSRQAPGKERELVAAITSSGGSTYYADSVKGRFTISRDYAKNTVYLQMNSLKPEHTAVYYCPARFYSGPGGYTIYYWGQGTQVTVSS”: “high polyreactivity”.
The entry for “QVQLVESGGGLVQAGGSLRLSCAASGFILGTYAMGWYRQATGKERELVADISWSVGSTYYADSVKGRFTISRDNAKNTVYLQMISLKPEDTAVYYCNADGYTLWYEYDYWGQGTQVTVSS” is “low polyreactivity”; for “QVQLVESGGGLVQAGGSLRLSCAASGNTLDAYAMGWYRQAPGKERELVAAITSGGSTYYADSVKGRFTISRDNAKNTVYLQMNSLKPEDTAVYYCNADGHPSDPGYDYWGQGTQVTVSS” it is “low polyreactivity”.
Consider “QVQLVESGGGLVQAGGSLRLSCAPSGSISQTYAMGWYRQAPGKERELVAAISSSGASTYYADSVKGRFTISRDNAKNTVYLQMNSLKPEDTAVYYCAALGRYRYIYNYWGQGTQVTVSS”, for which the “polyreactivity (PSR sort gate)” value is “high polyreactivity”.
The entry for “QVQLVESGGGLVQAGGSLRLSCAASGSIFLIYAMGGYRPAPGKERELVAGINWSGSRTYYADSVKGRFTISRDNAKNTVYLQMNSLKPEDTAVYYCAARVRRPLYSAYDSWGQGTQVTVSS” is “low polyreactivity”.
The entry for “QVQLVESGGGLVQAGGSLRLSCAASGSTSLVYAMGWYRQAPGKERELVAAISWSGGSTYYADSVKGRFTISRDNAKNTVYLQMKSLKPEDTAVYYCAAEYYGYWEYDYWGQGTQVTVSS” is “high polyreactivity”.
Next, “QVQLVESGGGLVQAGGSLRLSCPASGSIFYENAMGWYRQAPGKARELVAAISRSGGSTYYADSVKGRFTISRDNAKNTVYLQMNSLKPEDTAVYYCNTEGGVIRRYWYDYWGQGTQVTVSS”: “low polyreactivity”; “QVQLVESGGGLVQAGGSLRLSCAASGRTFRAYALGWYRQAPGKERELVARISWSGGNTYNADSVKGRFTISRDHAKNTVYLQMNSLKPEDTAVYYCAKTYYPYPAQIYTGYSWGQGTQVTVSS”: “low polyreactivity”; “QVQLVESGGRLVQAGGSLRLSSAASGRIFKKNAMGRYRQAPGKERELVAAISYRGGSTYYADSVKGRFTISRDNAKNSVYLQMNSLKPVDTAVYYCNVGSRGCWDASDYDYWGQGTQVTVSS”: “high polyreactivity”.
As to “QVQLVESGGGLVQAGGSLRLSCAASGFTFSTNAMGWYRQAPGKETELVAGITSSGGNTYYADSVKGRFTISRDNAKNTVYLQMNSLKPEDTAVYYCAKRRNYVAYDYWGQGTQVTVSS”, the “polyreactivity (PSR sort gate)” value is “high polyreactivity”.
Next, “QVQLVESGGGLVQAGGSLRLSCAASGGIFRYYAMGWYRQAPGKERELVATITSGSITNYADSVKGRFTISRDNAKNTVYLQMNSLKPEDTAVYYCAALGAFPSLEFDYWGQGTQVTVSS”: “low polyreactivity”; “QVPLVESGGGLVQAGGSLRLSCAASGSTLTSNAMGWYRQAPGKERELVAAIRSGGSTNYADSVKGRFTISRDNAKNTVYLQMNSLKPEDTAVYYCNTDFLWQGYGYSRVSYDYWGQGTQVTVSS”: “low polyreactivity”.
The entry for “QVQLVESGGGLVQAGGSLRLSCAASGSTIKYYAMGWYRQAPGKERELVAAINWSGDSTYYADSVKGRFTISRDNAKNTVYLQMNSLKPEDTAVYYCAVRYQKRAYYGSNYWGQGTQVTVSS” is “high polyreactivity”; for “QVQLEESGGGLVQAGGSLRLSCAASGFTFELYAMGWYRQAPGKVRELVAAISYSGGSTYYADSVKGRFTISRDNAKNTVYLQMNSLKPEDTAVYYCNAVYWPYSGPVYTIVDYWGQGTQVTVSS” it is “low polyreactivity”; for “QFQLVESGGGLVQAGGSLPLSCAASGRTFGGNTMGRYREAPGKERELVAAISRRGGSTYYADSVKGRFTISRDNAKNTVYLQMNSLKPEDTAVYYCNKDGPSYSSYDYWGQGTQVTVSS” it is “low polyreactivity”.
Next, “LVQLQESGGGLVQPGGRLRLSCAASGTISPGGYMGWYRQAPGKERELVASINVGGRTNYADSVKGRFTISRDNAKNTVYLQMNSLKPEDNAVSYCAVWGRNRLQLSYWGQGTQVTVSS”: “low polyreactivity”; “QVQLVESGGGLVQAGGSLRLSCSASGRTFSWYAMGWYRKAPGKERELVAAISYSGGSTYYADSVKGRFTISRDNAKNTVYLQMNSLKPEDTAVYYCARTRRHSQNFDYWGQGTQVIVSS”: “high polyreactivity”.
“QVQLVESGGGLVQARGILRLSCAASGNIFGRYAMGWSRQAPGKERELVAAITRSCGRTYYADSVKGRFTISRHHAKNTVYLQRNSLKPEDTAGYYCAAVGGRDVYPVVDRDYWGQGTQLTVSS”: the “polyreactivity (PSR sort gate)” value was “low polyreactivity”.
Consider “QVQLVESGGGLVQAGGSLRLSCAASGYTFDTNALGWYRLAPGTEREFVAAISSTGGTYYADSVKGRFTISRDNAKNTVYLQMNSLKPEDTAVYYCAATFIQVVVIVQLYDYDYWRQGTQVTVSS”, for which the “polyreactivity (PSR sort gate)” value is reported as “low polyreactivity”.
As for “QVQLVESGGGLVQAGGSLRLSCAASGSIFWYYVMGWYRQAPGKERELVAAITFSGAGTYYADSVKGRFTISRDNAKNTVYLQMNSLKPEDTAVYYCAARWLGHFYPFFLQGLSGFDYWGQGTQVTVSS”, the “polyreactivity (PSR sort gate)” value is recorded as “low polyreactivity”.
The entry for “QVQLVESGGGLDQAGGSLRLSCAASGIIPYYYVMGWYRQAPGKERELVAAINRSGTSTYYADSVKGRFTISRDNAKNTVYLQMNSLKPEDTAVYYCAAERYWSGGVFDYDYWGQGTQVTVSS” is “high polyreactivity”.
As for “QVQLVESGGGLVQAGGSIRLSCAASGFIFQRYSMGWYRQAPGKERELVAAISSSGGSTYYADSVKGRFTISRDNAKNTVYLQMNSLKPEDTAVYYCAARVPPRTLAYYYWGQGTQVTVSS”, the “polyreactivity (PSR sort gate)” value is “high polyreactivity”.
On to “QVQLVESGGGLVQAGGSLRLSCAASGSIFRYNTMGRYRQAPGKERELVATITRRGGSTYYADSVKGRFTISRDNAKNTVYLQMNSLKPEDTAVYYCNADNFGGPYNYWGQGTQVTVSS”, for which the “polyreactivity (PSR sort gate)” value is “low polyreactivity”.
Next, “QVQLVESGGGLDQAGGSLRLSCAASGFIFYQNAMGWYKQAPGKERELFAAISTTGSRTYYADSVKGRFTISRDNPKNTVYLQMNRLKPVDTAVYYCATPLQQEGDWGQGTQVTVSS”: “high polyreactivity”.
Consider “QVQLVESGGGLVQAGGSLRLSCAASGRIVRYYTMGWYRQAPGKEREFVAAITLSGGRTYYADSVKGRFTISRDNAKNTVYLQMNSLKPEDTAVYYCAKRYVWGDKRYWQGYDYWGQGTQVSVSS”, for which the “polyreactivity (PSR sort gate)” value is “high polyreactivity”.
“QVQLVESGGGLVQAGGSLRLSCAASGSIFQYYGMGWYRPAPGKERELVAAITWNGGSTYADSVKGRFTISRDNAKNTVYLQMNSLKPEDTAVYYCAADLLVRWWLDYDYWGQGTQVTVSS”: the “polyreactivity (PSR sort gate)” value is given as “low polyreactivity”.
Next, “QVQLVESGGGLVQAGGSLRLSCAASGSILGLYAMGWYRQAPEKDRELVAASTWSGGSTYYADSVKGRFTISRDNAKNTVYLQMNSLKPEDTAVYYCAALARGYWVVNSLGSYDYWGQGTQVTVSS”: “high polyreactivity”; “QVQLVESGGGLVQAGGSLRLSCAASGSTFQHYAMGWYRQAPGKERELVAAITHTGGSTYYADSVKGRFTISRDNAKNTVYLQMNSLKPEDTAVYYCATVGRRYGYPGYYWGQGTQVTVSS”: “low polyreactivity”; “QVQLVESGGGLVQAGGSLRLSCAATGYIFSHYAMGWYRQAPGKERELVAAITRSGGSTYYADSVKGRFTISRDNAKNTVYLQMNSLKPEVTAVYYCAASSLFYYWGQGTQVTVSS”: “high polyreactivity”.
With “QVQLVESGGGLVQAGGSLRLSCAASGITLSWYAMGWYRQAPGKERELVAGISGRGGRTYYADSVKGRFTLSRDNAKNTVYLQMNSLKPEDTAVYYCAADSPGYRSYDYWGQGTQVTVSS”, the “polyreactivity (PSR sort gate)” value is listed as “high polyreactivity”.
Next, “QVQLVESGGGLVQAGGSLRLSCAASGSIFGRNAMGWYRQAPGKDRELVAAINSGGSTNYADSVKGRFTISRYNAKNTVYLQMNSLKPEDTAVYYCAARTYSSGRYYGYVAFYYWGQGTQVTVSS”: “high polyreactivity”; “QVQLVESGGGLVQAGGSLRLSCAASGFTFLWNAMGWYRQAPGKERELVAAISSSGGRTYYADSVKGRFTISRDNAKNTVYLLMNSLKPEDTAVYYCARVYSSPYNFGYWGQGTQVTVSS”: “low polyreactivity”.
Regarding “QVQLVESGRGLVQAGGSLRLSCAASGITFLDYAMGWYRQAPGKERELVAAITKSGGSTYYADSVKGRFTISRDNAKNTVFLQMNSLKPEDTAVYYCAKGRHPLWVEQPYEFDYWGQGTQVTVSS”, the “polyreactivity (PSR sort gate)” value is “low polyreactivity”.
The entry for “QVQLVESGGGLVQAGGSLRISCAASGSIFRYYYMGWYSQAPGKERELVAAITYSGGGTYYADSVKGRFTISRDNAKNTVYLQMNSLKAEDTAVYYCAVRRVGSIYIDRYIYVVSDYFYWGNGTQVTVSS” is “low polyreactivity”.
Regarding “QVQLQESGGGLVQAGGSLRLSCAASGTIFWLWAMGRYCQAPGQDRELVASISSGGTTYHADSVKGRFTISRDKAKNPVYRQMNSVKPEDTAVYYRAAFYVATAKLGYWGQGSQVTVSS”, the “polyreactivity (PSR sort gate)” value is given as “low polyreactivity”.
